In US11434267B2, “Peptides having reduced toxicity that stimulate cholesterol efflux” (The Regents of the University of California, priority 2013, dated 2022):

How the values were obtained:
Wistar rats = experiment: High-dose IV toxicity of ATI-5261 in rats (plasma ALT, AST, TG, cholesterol); type: in vivo, rat
Description: (§1) Peptides or peptidomeimetics of the invention can be evaluated for toxicity using known assays. Examples of such assays are illustrated in the Examples section. Toxicity is typically assayed in a rat, rabbit, mouse, monkey or dog model. In an illustrative assay such as that described in Example 1, a peptide is administered intravenously using a rabbit or rat model at doses of 3, 30, and 300 mg/kg and vehicle alone is also administered at 48 hour intervals for a total of four injections. Safety chemistry panels including plasma alanine aminotransferase (ALT), aspartate amino transferase (AST), and creatine kinase (CK) can then be determined in the blood. The presence of elevated levels of these enzymes in the blood compared to control normal values is indicative of toxicity. A peptide of the invention is typically considered to be non-toxic or to have little toxicity, when the results using the highest dose, 300 mg/kg in this illustrative assay, are equivalent (fall within the standard deviation) of the values measured for the control animals that received vehicle alone, or are no more than 2 or 3 times background obtained with vehicle alone. In some embodiments, a toxicity assay is performed where the toxicity of a peptide of the invention is compared to that to ATI-5261. […]
(§2) Cytotoxicity of an HDL mimetic peptide ATI-5261 at high doses was evaluated in rats and rabbits (FIG. 1). […]

[1] = test system: New Zealand White rabbits; experiment: High-dose IV bolus toxicity of ATI-5261 in rabbits (plasma ALT, AST, TG, cholesterol); type: in vivo, rabbit
Excerpt: as §1, with “In an illustrative assay such as that described in Example 1, a peptide is administered intravenously using a rabbit or rat model at doses of 3, 30, and 300 mg/kg and vehicle alone is also administered at 48 hour intervals for a total of four injections.” left out, “alone.” for “alone. In some embodiments, a toxicity assay is performed where the toxicity of a peptide of the invention is compared to that to ATI-5261.”
as §2
For the experiments in FIG. 2, male chow-fed Wistar rats (Panels A and B) were administered ATI-5261 at doses of 3, 30, and 300 mg/kg as described in FIG. 1. Plasma triglyceride (TG, Panel A) and unesterified cholesterol (Panel B) concentrations were determined enzymatically at the times indicated. […]

ABCG1 = target: T1, ABCG1 (Homo sapiens, UniProt P45844); experiment: ABCG1 mediated cholesterol efflux from BHK cells stably transfected with ABCG1; type: cell-based; details: BHK-ABCG1 vs mock, 50 μg peptide/ml, time-course and 4 h
T1 construct: expressed in transfected cells; host or cells: BHK cells, stably transfected
Excerpt: To further evaluate potential anti-atherogenic mechanisms of CS6253, BHK cells stably transfected with ABCG1 and mock-transfected control cells were labeled with [3H]cholesterol and used in efflux experiments. […] Panel A—Time-course for ABCG1 mediated cholesterol efflux from cells to lipid-free CS6253 peptide or CS6253:POPC complexes. […] Panel B—Comparison between CS6253 and ATI-5261 in mediating cellular cholesterol efflux via ABCG1. [3H]cholesterol labeled BHK cells (ABCG1 vs. mock transfected; left bars, control BHK, right bars, G1-BHK) were incubated with either lipid-free peptide or peptides formulated with POPC.

C57Bl/6 mice [2] = type: in vivo; details: 300 mg/kg IP, male chow-fed C57Bl/6 mice
Description: The high-dose cytotoxic response of ATI-5261 observed in rat, rabbit and cynomolgus monkey is additionally recapitulated in mice (FIG. 4). Male chow-fed C57bl/6 mice were injected intraperitonelly (IP) with 30 or 300 mg/kg of lipid-fee ATI-5261. Blood was collected via the retro-orbital plexus 4 h after peptide injection and plasma subsequently obtained for measurement of CPK (Panel A) and ALT and AST activities (Panel B, ALT left bars, AST, right bars). Values are means±SD, n=4 mice per group.
This example illustrates that aromatic phenylalanine residues associated with the non-polar surface of ATI-5261 contributed to the majority of the peptide toxicity (FIG. 5). […] Blood was collected via retro-orbital plexus 4 h after injection for isolation of plasma. Levels of plasma CPK (Panel A), ALT (panel B) and AST (Panel C) were determined as described in FIG. 1. Values are means±SD, n=4 mice per group.
The concentrations of plasma lipids in C57Bl/6 mice following administration of the aliphatic analogs of ATI-5261 was also determined. […] All values (mg/dl) are means±SD, n=4, determined at 4 and 6 h post treatment with peptide.

C57Bl/6 mice [3] = details: mouse, in vivo, ip, 300 mg/kg

Which results are given for “ATI-5261: HDL mimetic peptide, parent peptide with phenylalanine and arginine residues; toxic at high doses; used as positive control (EVRSKLEEWFAAFREFAEEFLARLKS)”?
plasma triglycerides and unesterified cholesterol (Wistar rats; IV): increased plasma triglycerides and cholesterol; cytotoxic response (plasma ALT, AST) (Wistar rats; IV 3, 30, 300 mg/kg at 48 h intervals, 4 injections): induced a cytotoxic response; plasma triglycerides and unesterified cholesterol ([1]; single IV bolus): increased plasma triglycerides and cholesterol; cytotoxic response (plasma ALT, AST) ([1]; single IV bolus 3, 30 or 300 mg/kg): induced a cytotoxic response; cholesterol efflux via ABCG1 (ABCG1): poorly active; TG elevating effect (plasma TG, cholesterol) (C57Bl/6 mice [2]; 4 and 6 h): marked increase in plasma TG, total and unesterified (free) cholesterol (FC); cytotoxic/toxic response (plasma CPK, ALT, AST) (C57Bl/6 mice [2]; 4 h): High levels of cytotoxic markers; triglyceride (TG) (C57Bl/6 mice [3]): triglyceride (TG) elevation effects
